Measurements taken from US20100162418A1 (Kyowa Kirin, published 2010).

Tests used:
[1] = molecular target: T1, recombinant human RAGE-Fc fusion protein (manufactured by R&D Systems) (human, UniProt Q15109 24-344); experiment: SPR (Biacore), HMGB-1 immobilised on C1 chip, RAGE-Fc (50000, 5000, 500 ng/mL) as analyte
T1 construct: Bought fusion protein; also called recombinant soluble RAGE-human IgG1 Fc chimeric protein; not shown: Fc of human IgG1
Excerpt: (§1) Using an amine coupling kit (manufactured by Biacore), human plasma-derived Protein S (manufactured by Calbiochem), human plasma-derived complement C4 binding protein (C4BP; manufactured by BioMed), and human plasma-derived complement C1 inhibitor Berinert P (manufactured by CSL Behring) were respectively immobilized on flow cells of a CM5 sensor chip (manufactured by Biacore). An immobilized amount of the ligand protein on the respective flow cells was set to the range of 2400 to 3600 resonance units (hereinafter referred to as “RU”). The complement C4 binding protein and the complement C1 inhibitor are known as plasma glycoproteins having the anti-inflammatory effect. Then, a recombinant human RAGE-Fc fusion protein (manufactured by R&D Systems) diluted to given concentrations (50000, 25000, 12500, 6250, 3125, and 1562 ng/mL) using HBS-EP+buffer (manufactured by Biacore), as an analyte, was allowed to run and bind to the ligand-immobilized flow cells at a temperature of 25° C., a flow rate of 5 μL/min, association time of 140 seconds, and dissociation time of 240 seconds. The chip was regenerated by a flow of an aqueous glycine solution (pH 1.5) (manufactured by Biacore) for 60 seconds. […]

[2] = molecular target: T2, MSPS, purified recombinant human Protein S obtained from FUT8 knockout CHO/DG44 cells (human, UniProt P07225 42-676, gamma-carboxylated glutamic acid (Gla) in the Gla domain; complex type N-glycoside-linked sugar chains without fucose (fucose not detected)); experiment: SPR (Biacore), HMGB-1 immobilised on C1 chip, MSPS as analyte
T2 construct: It differs from KCPS only in glycosylation (no core fucose); also called fucose-free recombinant Protein S
T2 sequence: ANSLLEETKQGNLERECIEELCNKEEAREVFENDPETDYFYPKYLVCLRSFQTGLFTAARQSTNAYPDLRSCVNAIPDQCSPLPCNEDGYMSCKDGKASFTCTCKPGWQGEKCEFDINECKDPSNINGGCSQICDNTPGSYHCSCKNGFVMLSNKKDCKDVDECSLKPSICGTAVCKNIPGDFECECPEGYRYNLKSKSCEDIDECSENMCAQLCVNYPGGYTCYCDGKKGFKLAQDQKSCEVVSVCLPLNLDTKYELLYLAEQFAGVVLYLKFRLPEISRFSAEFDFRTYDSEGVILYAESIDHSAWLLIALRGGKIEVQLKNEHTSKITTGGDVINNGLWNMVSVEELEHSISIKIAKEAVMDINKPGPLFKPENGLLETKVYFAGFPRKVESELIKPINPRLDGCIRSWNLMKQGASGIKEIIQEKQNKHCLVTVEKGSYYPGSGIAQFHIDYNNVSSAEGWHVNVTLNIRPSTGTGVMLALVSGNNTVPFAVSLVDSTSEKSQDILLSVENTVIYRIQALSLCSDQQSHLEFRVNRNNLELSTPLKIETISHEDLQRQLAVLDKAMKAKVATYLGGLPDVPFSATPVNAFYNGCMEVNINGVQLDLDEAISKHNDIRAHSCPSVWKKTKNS

[3] = molecular target: T1, recombinant human RAGE-Fc fusion …; experiment: SPR (Biacore), S100A8/A9 immobilised on C1 chip, RAGE-Fc (50000, 5000, 500 ng/mL) as analyte
Excerpt: as §1

[4] = molecular target: T2, MSPS, purified recombinant human …; experiment: SPR (Biacore), S100A8/A9 immobilised on C1 chip, MSPS as analyte
Method: Using an amine coupling kit (manufactured by Biacore), recombinant human HMGB-1 (manufactured by R&D Systems), recombinant human Mac-1 heterodimer (αmβ2 integrin, CD11b/CD18; manufactured by R&D Systems), and recombinant human S100A8/A9 (manufactured by R&D Systems) were respectively immobilized at 200 RU, 1200 RU, and 400 RU on flow cells of a Series S C1 sensor chip (manufactured by Biacore). The measurement was carried out in the same manner as in Example 5, except that the recombinant human RAGE-Fc fusion protein (manufactured by R&D Systems) diluted to given concentrations of 50000, 5000 or 500 ng/mL was used as an analyte.
Next, using the same sensor chip, the same binding experiment was carried out using a recombinant human RAGE-Fc fusion protein (5000 ng/mL) mixed with MSPS (final concentration of 50000 and 5000 μg/mL), as an analyte.

[5] = molecular target: T3, human plasma-derived Protein S (manufactured by Calbiochem) (human, UniProt P07225 42-676, gamma-carboxylated glutamic acid (Gla) in the N-terminal Gla domain; complex type N-glycoside-linked sugar chains (Asn458, Asn468, Asn489), partly with core alpha1,6-fucose (Fuc 0.26 per Man 3.00)); experiment: SPR (Biacore), plasma Protein S immobilised on CM5, E-selectin Fc as analyte
T3 construct: Bought protein purified from human plasma; also called native Protein S; Human plasma Protein S
T3 sequence: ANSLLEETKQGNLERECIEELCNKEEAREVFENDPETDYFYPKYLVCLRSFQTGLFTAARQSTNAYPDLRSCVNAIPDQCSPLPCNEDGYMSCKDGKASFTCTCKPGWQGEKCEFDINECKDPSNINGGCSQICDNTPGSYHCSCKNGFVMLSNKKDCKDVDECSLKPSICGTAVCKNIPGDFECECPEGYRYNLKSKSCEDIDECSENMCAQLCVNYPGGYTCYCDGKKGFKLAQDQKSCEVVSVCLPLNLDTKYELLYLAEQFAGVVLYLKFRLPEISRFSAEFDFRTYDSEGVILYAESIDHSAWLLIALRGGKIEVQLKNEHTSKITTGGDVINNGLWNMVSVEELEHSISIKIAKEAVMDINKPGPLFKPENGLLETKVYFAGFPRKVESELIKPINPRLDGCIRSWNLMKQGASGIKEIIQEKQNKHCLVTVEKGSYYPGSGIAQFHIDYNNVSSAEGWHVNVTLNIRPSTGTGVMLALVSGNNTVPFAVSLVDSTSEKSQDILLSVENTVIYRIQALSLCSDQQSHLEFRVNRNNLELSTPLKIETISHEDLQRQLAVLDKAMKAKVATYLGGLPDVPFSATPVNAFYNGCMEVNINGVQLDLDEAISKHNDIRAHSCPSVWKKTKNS

T1 sequence (Q15109 24-344 limits assumed): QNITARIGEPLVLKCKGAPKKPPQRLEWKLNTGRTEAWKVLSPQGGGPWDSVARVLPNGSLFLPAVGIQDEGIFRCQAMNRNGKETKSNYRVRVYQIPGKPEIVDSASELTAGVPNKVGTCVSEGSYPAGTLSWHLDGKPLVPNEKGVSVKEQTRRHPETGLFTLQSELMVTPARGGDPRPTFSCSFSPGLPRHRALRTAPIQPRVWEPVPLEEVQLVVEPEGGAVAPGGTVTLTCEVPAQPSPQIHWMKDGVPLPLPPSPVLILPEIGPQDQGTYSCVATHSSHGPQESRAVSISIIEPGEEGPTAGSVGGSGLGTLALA

B1: recombinant human HMGB-1 (manufactured by R&D Systems) (ligand, UniProt P09429 1-215, looked up)
chain: MGKGDPKKPRGKMSSYAFFVQTCREEHKKKHPDASVNFSEFSKKCSERWKTMSAKEKGKFEDMAKADKARYEREMKTYIPPKGETKKKFKDPNAPKRPPSAFFLFCSEYRPKIKGEHPGLSIGDVAKKLGEMWNNTAADDKQPYEKKAAKLKEKYEKDIAAYRAKGKPDAAKKGVVKAEKSKKKKEEEEDEEDEEDEEEEEDEEDEDEEEDDDDE
Q: Does B1 bind [1]?
A: Result: binds

Q: Does B1 bind [2]?
A: Result: no binding

B2: recombinant human S100A8/A9 (manufactured by R&D Systems) (ligand)
chain 1: MLTELEKALNSIIDVYHKYSLIKGNFHAVYRDDLKKLLETECPQYIRKKGADVWFKELDINTDGAVNFQEFLILVIKMGVAAHKKSHEESHKE
chain 2: MTCKMSQLERNIETIINTFHQYSVKLGHPDTLNQGEFKELVRKDLQNFLKKENKNEKVIEHIMEDLDTNADKQLSFEEFIMLMARLTWASHEKMHEGDEGPGHHHKPGLGEGTP
notes: Bought
Q: Does B2 bind [3]?
A: Result: binds

Q: Does B2 bind [4]?
A: Result: no binding

B3: human E-selectin Fc fusion protein (manufactured by R&D systems) (Fc fusion, UniProt P16581 22-556, looked up)
chain: WSYNTSTEAMTYDEASAYCQQRYTHLVAIQNKEEIEYLNSILSYSPSYYWIGIRKVNNVWVWVGTQKPLTEEAKNWAPGEPNNRQKDEDCVEIYIKREKDVGMWNDERCSKKKLALCYTAACTNTSCSGHGECVETINNYTCKCDPGFSGLKCEQIVNCTALESPEHGSLVCSHPLGNFSYNSSCSISCDRGYLPSSMETMQCMSSGEWSAPIPACNVVECDAVTNPANGFVECFQNPGSFPWNTTCTFDCEEGFELMGAQSLQCTSSGNWDNEKPTCKAVTCRAVRQPQNGSVRCSHSPAGEFTFKSSCNFTCEEGFMLQGPAQVECTTQGQWTQQIPVCEAFQCTALSNPERGYMNCLPSASGSFRYGSSCEFSCEQGFVLKGSKRLQCGPTGEWDNEKPTCEAVRCDAVHQPPKGLVRCAHSPIGEFTYKSSCAFSCEEGFELHGSTQLECTSQGQWTEEVPSCQVVKCSSLAVPGKINMSCSGEPVFGTVCKFACPEGWTLNGSAARTCGATGHWSGLLPTCEAPTESNIP
notes: Fc-bearing control protein; bought; not shown: Fc, described as similar to the Fc of human IgG1 contained in the RAGE-Fc fusion protein
Q: Does B3 bind [5]?
A: Result: no binding
